The values that follow come from paper PMC12022308 (Nature Communications, 2025).

The term stoichiometry N denotes the number of molecules, sites or subunits per partner or assembly.

The data set concerns the molecule itself. Description: cryo-EM structure.

B1: L-protein (homodimeric BchL protein, electron donor component of DPOR) (natural protein, Rhodobacter sphaeroides, UniProt Q9RFD6 1-297, looked up)
chain: MSPKDLTIPTGADGEGSVQVHLDEADKITGAKVFAVYGKGGIGKSTTSSNLSAAFSILGKRVLQIGCDPKHDSTFTLTGSLVPTVIDVLKDVDFHPEELRPEDFVFEGFNGVMCVEAGGPPAGTGCGGYVVGQTVKLLKQHHLLDDTDVVIFDVLGDVVCGGFAAPLQHADQAVVVTANDFDSIYAMNRIIAAVQAKSKNYKVRLAGCVANRSRATDEVDRFCKETNFRRLAHMPDLDAIRRSRLKKKTLFEMDEDQDVLAARAEYIRLAESLWRGLDPIDPHSLPDRDIFELLGFD
On to B1, for which the “stoichiometry N” value was determined as 2.
